The DeepSol protein solubility set

Test: soluble on expression in E. coli; label from the status in PepcDB or PDB records

Row | Sequence | soluble on expression in E. coli
1 | MRFKAELMNAPEMRRALYRIAHEIVEANKGTEGLALVGIHTRGIPLAHRIARFIAEFEGKEVPVGVLDITLYRDDLTEIGYRPQVRETRIPFDLTGKAIVLVDDVLYTGRTARAALDALIDLGRPRRIYLAVLVDRGHRELPIRADFVGKNVPTSRSEVVKVKVEEVDGEDRVELWEREGA | soluble
2 | MRGPAPMPDTSLSTFLARPAPTILVEIEAVKGSSPREAGTFMLVSQEALWETIGGGQFEYMAIDHARAMLRTGAAEDRMDIPLGPEIGQCCGGRTLIRFRLITAEIAATLEARLKGEAEQQPAVFIFGAGHVGKALADALSLLPLTLKVVETRESELRDIPAGIASILTPMPEAFVQKIPANGAAIIVTHDHALDFLIAKEALARDDLAYVGMIGSKTKRATFAHWLEREGEPPSRLAKLTLPIGGTGVRDKRPAVIAALVAAELLQAFSVAETRRSENRHDHPQGQDRA | not soluble
3 | MRGRWPYEEKPLIVFWESTKACLLACKHCRAEALTEPQPGELSTREALALVDQVVEFGRPYPILVITGGDPLMRRDFWRILEYAVSQGLRVAVAPSVTPLLTREVVRRMARMGVARISISIDSGLPEVHDAIRGVPGTFKASVNIVREALAAGLPVQINTTVMKPTVDSLPETLKLLLDLGVDVWEVFYVVPTGRAARILDLTPSEWEDVSNYLYDASRYGVLVRTVEGPMFRRIALTRRLLENMGLDWRNR | not soluble
4 | MRGSHHHHHHGKQLTILGSTGSIGCSTLDVVRHNPEHFRVVALVAGKNVTRMVEQCLEFSPRYAVMDDEASAKLLKTMLQQQGSRTEVLSGQQAACDMAALEDVDQVMAAIVGAAGLLPTLAAIRAGKTILLANKESLVTCGRLFMDAVKQSKAQLLPVDSEHNAIFQSLPQPIQHNLGYADLEQNGVVSILLTGSGGPFRETPLRDLATMTPDQACRHPNWSMGRKISVDSATMMNKGLEYIEARWLFNASASQMEVLIHPQSVIHSMVRYQDGSVLAQLGEPDMRTPIAHTMAWPNRVNSGVKPLDFCKLSALTFAAPDYDRYPCLKLAMEAFEQGQAATTALNAANEITVAAFLAQQIRFTDIAALNLSVLEKMDMREPQCVDDVLSVDANAREVARKEVMRLASSACDLGTPGRPAAKLN | soluble
5 | MRGSHHHHHHGMASHITYDLPVAIEDILEAKKRLAGKIYKTGMPRSNYFSERCKGEIFLKFENMQRTGSFKIRGAFNKLSSLTEAEKRKGVVACSAGNHAQGVSLSCAMLGIDGKVVMPKGAPKSKVAATCDYSAEVVLHGDNFNDTIAKVSEIVETEGRIFIPPYDDPKVIAGQGTIGLEIMEDLYDVDNVIVPIGGGGLIAGIAIAIKSINPTIKVIGVQAENVHGMAASYYTGEITTHRTTGTLADGCDVSRPGNLTYEIVRELVDDIVLVSEDEIRNSMIALIQRNKVITEGAGALACAALLSGKLDSHIQNRKTVSIISGGNIDLSRVSQITGLVDA | soluble
6 | MRGSHHHHHHGSALSNKFIGDDMKMTYHMDGCVNGHYFTVKGEGNGKPYEGTQTSTFKVTMANGGPLAFSFDILSTVFKYGNRCFTAYPTSMPDYFKQAFPDGMSYERTFTYEDGGVATASWEISLKGNCFEHKSTFHGVNFPADGPVMAKKTTGWDPSFEKMTVCDGILKGDVTAFLMLQGGGNYRCQFHTSYKTKKPVTMPPNHVVEHRIARTDLDKGGNSVQLTEHAVAHITSVVPF | soluble
7 | MRGSHHHHHHGSPPAAPITLWTGPGPSINGFINDTPVIRCFICLTRDSNLVTVNASFVGEGGYRIVSPTQSQFSLIMEFDQFGQLMSTGNINSTTTWGEKPWGNNTVQPRPSHTWKLCMPNREVYSTPAATISRCGLDSIAVDGAPSRSIDCMLIINKPKGVATYTLTFRFLNFNRLSGGTLFKTDVLTFTYVGENQ | soluble
8 | MRGSHHHHHHTDPALRARNRTLADLDRVVALGGGHGLGRVLSSLSSLGSRLTGIVTTTDNGGSTGRIRRSEGGIAWGDMRNCLNQLITEPSVASAMFEYRFGGNGELSGHNLGNLMLKALDHLSVRPLEAINLIRNLLKVDTHLIPMSEHPVDLMAIDDQGHEVYGEVNIDQLTTPIQELLLTPNVPATREAVHAINEADLIIIGPGSFYTSLMPILLLKEIAQALRRTPAPMVYIGNLGRELSLPAANLKLESKLAIMEQYVGKKVIDAVIVGPKVDVSAVKERIVIQEVLEASDIPYRHDRQLLHNALEKALQALGGLCGR | soluble
9 | MRGSHHHHHHTDPALRATIWVDADACPNVIKEILYRAAERMQMPLVLVANQSLRVPPSRFIRTLRVAAGFDVADNEIVRQCEAGDLVITADIPLAAEAIEKGAAALNPRGERYTPATIRERLTMRDFMDTLRASGIQTGGPDSLSQRDRQAFAAELEKWWLEVQRSRGGLCGR | soluble
10 | MRGSMGAMHVLTLDLAPVTPKDAPLLHRVFHLSPSYFALIGMELPTLEDVVRDLQTLEVDPRRRAFLLFLGQEPVGYLDAKLGYPEAEDATLSLLLIREDHQGRGLGRQALERFAAGLDGVRRLYAVVYGHNPKAKAFFQAQGFRYVKDGGPTLTWYVRPL | soluble
11 | MRHSFFCIDSHTCGNPVRLVAGGGPLLPHLPISERRDLFVRNHDWVRQALMFEPRGHDIMSGAVIYPAYRDDCDFAVIFIEVSGCLPMCGAGTIGLVTAAIEEGLVTPRIPGRLSIETPAGKVDIQYDKPGEFVESVRIFNVASYLHAADVEVNVPGLGKLVVDIAYGGNYYAVIEPQVGWPGLDGMTAGDVVDLSQKLRDALGTICDPVHPDDERIRGVHHAIWCDRPVSAEADGRGAVFYGDKAIDRSPGGTGTSARMAQLHGKGRLKAGETFRQESLIGTIFEGKVEEETTVGSFSGIRPSIGGWARIIGHNTIFVDDRDPLAHGFQVRLEHHHHHH | not soluble
12 | MRHTLPIAPQFYVTAPQSCPYLEGRLERKLFTALQGEHAQKLNDTLSKQGFRRSQNVLYRPSCAECSACLSARIRVADFEPTRTQRRVMKRNADLRRNATSPWATEDQYALFRRYLDDRHADGGMADMDIFEFAAMIEETPIRSRVIEYSRPGDTPSNRPLSAVCLTDIFDDGLSMVYSFYDPDLAGRSLGAYVILDHIEIAREAGLPYVYLGYWVPGSRKMGYKATYSALEIYKGGRWQAIGQPSDHRAELHPLSVDPIAEQVARISLPEARSGDRSRDLEHHHHHH | not soluble
13 | MRIGLFTDTYFPQVSGVATSIRTLKEELEKEGHEVYIFTTTDRDVKRFEDPTIIRLPSVPFVSFTDRRVVYRGLISSYKIAKHYNLDIIHTQTEFSLGLLGKMIGKALRIPVVHTYHTQYEDYVSYIANGKIIRPSMVKPLLRGYLKDLDGVICPSRIVLNLLEGYEVTIPKRVIPTGIPLEKYIRDDITAEEVTNLKAELGIAGDETMLLSLSRISYEKNIQAIINQMPAILAENAKIKLIIVGNGPYLQDLKHLAMQLEVDKHVTFTGMVPHDKVALYYKACDFFISASTSETQGLTYIESLASGTPIIAHGNPYLDDVVTDKMFGTLYYAETDLTDAIIDAILKTPVMDKRLLAKKRYEISAQHFGKSIYTFYLDTLIARNSKEAQKLSLYLNHSGKSSSLKLVQGAIHLPKRAAKVTAITSVKVVKAPIKLVHAIKDFLD | not soluble
14 | MRIHSPYPASWALAQRIGYLYSEGEIIYLADTPFERLLDIQRQVGQCQTMTSLSQADFEARLEAVFHQNTGESQQIAQDIDQSVDLLSLSEEMPANEDLLNEDSAAPVIRLINAILSEAIKETASDIHIETYEKTMSIRFRIDGVLRTILQPNKKLAALLISRIKVMARLDIAEKRIPQDGRISLRIGRRNIDVRVSTLPSIYGERAVLRLLDKNSLQLSLNNLGMTAADKQDLENLIQLPHGIILVTGPTGSGKSTTLYAILSALNTPGRNILTVEDPVEYELEGIGQTQVNTRVDMSFARGLRAILRQDPDVVMVGEIRDTETAQIAVQASLTGHLVLSTLHTNSASGAVTRLRDMGVESFLLSSSLAGIIAQRLVRRLCPQCRQFTPVSPQQAQMFKYHQLAVTTIGTPVGCPHCHQSGYQGRMAIHEMMVVTPELRAAIHENVDEQALERLVRQQHKALIKNGLQKVISGDTSWDEVMRVASATLESEA | not soluble
15 | MRINKPFSDDSNTVVFVSSKTYGVKEEAAHNPNVEFGVVLPTDFPAFNRALVQFLKRKKTKLNINLDSLIELYKKNENSGCFHTAIKTVITSVTFCETTPFTMKTKPEKNVEVAVQCAVEYHNLVKEYET | not soluble
16 | MRKCRCLKLRNVKLINIRRIAVMMRSSKMASERSTDVQAFIGELDGGVFETKIGAVLSEVASGVMNTKTKGKVSLNLEIEPFDENRLKIKHKLSYVRPTNRGKISEEDTTETPMYVNRGGRLTILQEDQGQLLTLAGEPDGKLRAAGHMAGDPLEHHHHHH | soluble
17 | MRKDRVTQGVDRIMQAIADKEFELGQAIPGEAKLAEFLDVSRPTMREVVRTLADRGVLEVVHGRGTFVAPLDHWSDVRSRVDFISRTLSPGEVGFHLTEVRRMIEVGSCGHAAARAEDCDLDRMQTALDAYDAALEAHDVAGIAKSDVEFHNAIFEATKNPVVTALMIPLEGELAASRLRTSAVSEVAERAQEHHRRIYSAIKASDEEGAKNAMRAHMSQTFDDLQRFVGEY | not soluble
18 | MRKFIFILLLIISSFSFCSNEISVDKSVEESVTKDYDQDGKYSSYERALRNAQGSIYVTLPEKRGYWYTILDRIKAEEDELMPDEKARIRRK | not soluble
19 | MRKGNTDLLLFFNGWGMDRRVADWLVSAWPDSAGRDIAVLYDYRNLSIPAWLGEVMAEARAVDLVAWSLGVWAAVNSELEKIDRAVAINGTATPLDAERGIPPEIFAGTLKSWNDANRKRFERRMTGGVPPKIVDATRSDRTSADQQAELLSLGEAVARFPAESTASWKFSKALIGGRDLIFSAENQRRAWSEAGVRVAEIAAMPHFPFTHIAGWGELFT | not soluble
20 | MRKISEMPKFERPREKLLERGVGYLSDLELLAVLIGNGTKDCSVMNVAGKVLKLLDKGCDRVSARVLQEIEGVGPAKSAVIAAALEFARRRIRPEGIKITSACDILPLISYLANRKQEHFVCVSLNGASEVIATRVVSVGLVNNVQVHPREVFADPITDRATAVIVAHNHPSGSVAPSQEDIEVTKRLKDAGNTLGIKLIDHIIFSRKGYFSFLENGQMPD | soluble
21 | MRKLKYQRDFFPLLHLNYGSNWRCGMDRIAYFKSLLEKNPDNPMVHYSLGLEYFKVKDYENAIKHLERYLELQEDEGAAYRTLAKCYEELGEFQKAIEVLEEGIRQAMKYNHPSMAQEYQQWIEELKGMAF | soluble
22 | MRKPRITYLDVWANDERIGTLEKGAMYRFAYDNPNSSLLGLHYQDRSKVYISNNMPHIFAQYFPEGFLDAHITSKYAFHDAPFEDNEMLRLAILCRETLGRIHVRCNDPLFNEWIDGLEMKNPRILTERDLLGINARQVFQQYMAEIFHHGRFVSVSGIQQKMSLDAIRRNTKQTASYIAKGFDASEYPCLAANEFLCMQTIKQAGIAVAQTSLSEDSSVLLVRRFDVSEQGYFLGMEDFTSLRQYSVEDKYKGSYAAIAQIIRQISGRPDEDLIHFFNQLAASCILKNGDAHLKNFSVLYHDEYDVRLAPVYDVLDTSIYRVGTQGIFDAYDDTLALNLTNHGKKTYPSKNTLLDFAEKYCDLGREDASFMIDTIVQAKEQVLVKYSDVLRENEWLAQKWHFIPDENEEGLPFTFR | not soluble
23 | MRKQWLGICIAAGMLAACTSDDGQQQTVSVPQPAVCNGPIVEISGADPRFEPLNATANQDYQRDGKSYKIVQDPSRFIQAGLAAIYDAEPGSNLTASGEAFDPTQLTAAHPTLPIPSYARITNLANGRMIVVRINDRGPYGNDRVISLSRAAADRLNTSNNTKVRIDPIIVAQDGSLSGPGMACTTVAKQTYALPAPPDLSGGAGTSSVSGPQGDILPVSNSTLKSEDPTGAPVTSSGFLGAPTTLAPGVLEGSEPTPAPQPVVTAPSTTPATSPAMVTPQAASQSASGNFMVQVGAVSDQARAQQYQQQLGQKFGVPGRVTQNGAVWRIQLGPFANKAEASTLQQRLQTEAQLQSFITTAQ | not soluble
